B1: mNeonGreen-tagged T-bet DNA binding domain (aa 135-326), wild type [mouse] / mTagBFP-tagged GATA3 DNA binding domain (aa 259-369) [not stated] (parent complex)
chain 1: KLRVALSNHLLWSKFNQHQTEMIITKQGRRMFPFLSFTVAGLEPTSHYRMFVDVVLVDQHHWRYQSGKWVQCGKAEGSMPGNRLYVHPDSPNTGAHWMRQEVSFGKLKLTNNKGASNNVTQMIVLQSLHKYQPRLHIVEVNDGEPEAACSASNTHVFTFQETQFIAVTAYQNAEITQLKIDNNPFAKGFREN
chain 2: not shown

Variants of: B1
Assay: flow-cytometric FRET; HEK293T cells; parent: 0.036; read off a plot

Row | Variant | response
1 | chain 1 R29A, chain 1 R30A | ~-0.004 DFRET
2 | chain 1 Q126A | ~0.031 DFRET
3 | chain 1 V124W | ~0.025 DFRET
4 | chain 1 K26A | ~0.018 DFRET
5 | chain 1 K113L | ~0.041 DFRET
6 | chain 1 E76A | ~0.043 DFRET
7 | chain 1 I123E | ~-0.001 DFRET
8 | chain 1 R190W | ~-0.001 DFRET

Reference: paper PMC9071441 (2022)
